Reference: patent publication US20080025989A1 (Seagen, published 2008)

Experiments:
human CD70 [1] = molecular target: T1, human CD70 (human, UniProt P32970 1-193); assay: cell-based or functional assay
T1 sequence (looked up): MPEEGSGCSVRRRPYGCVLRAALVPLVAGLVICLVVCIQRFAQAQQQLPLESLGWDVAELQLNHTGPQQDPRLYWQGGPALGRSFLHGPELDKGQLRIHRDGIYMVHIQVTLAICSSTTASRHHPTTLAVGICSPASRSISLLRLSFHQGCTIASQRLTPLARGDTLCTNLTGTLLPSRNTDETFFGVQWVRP

human CD70 [2] = molecular target: T1, human CD70; assay: cell-based or functional assay; remark: listed apart in the source
human CD70 [3] = molecular target: T1, human CD70; assay: cell-based or functional assay; remark: listed apart in the source
human CD70 [4] = molecular target: T1, human CD70; assay: cell-based or functional assay; remark: listed apart in the source
human CD70 [5] = molecular target: T1, human CD70; assay: immunohistochemistry on frozen RCC tumor sections, 2 µg/ml
Experimental: Immunohistochemistry was used to determine if over-expression of CD70 transcript in RCC was paralleled by CD70 protein expression. Frozen RCC tissue sections and normal adjacent tissue sections from two patients independent of those used in CD70 transcript analysis (FIGS. 6 and 7) were fixed in acetone at −20° C. for 10 minutes. After rehydration in PBS, sections were blocked with PBS containing 5% normal goat serum and Avidin D for 30 minutes at room temperature, and washed in PBS. Sections were incubated with the anti-CD70 mAb 2F2 or non-binding IgG at 2 μg/ml in PBS containing 5% normal goat serum with biotin for 60 minutes at room temperature. After washes with PBS, biotinylated anti-mouse IgG (VECTASTAIN ABC Kit, Vector Laboratories, Burlingame, Calif.) at a 1:250 dilution in PBS containing 5% normal goat serum was used to detect bound primary antibody by incubating for 30 minutes at room temperature. Excess biotinylated anti-mouse IgG was removed by PBS washes. Sections were quenched with 1% H₂O₂ in PBS for 30 minutes at room temperature, washed, and then incubated with the VECTASTAIN ABC complex made up according to the manufacturer's instructions. After PBS washes, sections were incubated for 30 minutes at room temperature with the DAB solution (VECTASTAIN ABC Kit) made up according to the manufacturer's instructions for color development. […]

human CD70 [6] = molecular target: T1, human CD70; assay: flow cytometry on allo-activated T cells after 5 days of MLR
Text: In the second system, an MLR was set up between PBMC and an irradiated allogeneic stimulator CESS. Allogeneic activation of peripheral blood T cells was achieved by conventional mixed lymphoycte reactions (MLR). MLR were initiated by mixing PBMCs and irradiated allogeneic Epstein-Barr virus (EBV)-transformed B lymphoblastoid CESS cells (ATCC, Manassas, Va.) at a ratio of one T cell to ten irradiated CESS cells. T cell density was adjusted to 0.25×10⁶ T cells/ml of RPMI-1640 supplemented with 10% FBS and 2 mM L-glutamine. Rapid proliferation and expansion of alloreactive T cells was observed after approximately 96 hours of culture. After 5 days of stimulation, cells were assessed for CD70 expression using the anti-CD70 mAb 1F6 by flow cytometry. […] In parallel cultures in 96-well plates, graded doses of either 1F6-vcMMAE or 1F6-vcAFP were included in the cultures at initiation. DNA synthesis was assayed during the last 16 hours of the 5-day culture by a pulse of ³H-TdR.

B1: 1F6-vcAFP (antibody, V domains shown)
VH: QIQLVQSGPEVKKPGETVKISCKASGYTFTNYGMNWVKQAPGKGLKWMGWINTYTGEPTYADAFKGRFAFSLETSASTAYLQINNLKNEDTATYFCARDYGDYGMDYWGQGTSVTVSS
VL: DIVLTQSPASLAVSLGQRATISCRASKSVSTSGYSFMHWYQQKPGQPPKLLIYLASNLESGVPARFSGSGSGTDFTLNIHPVEEEDAATYYCQHSREVPWTFGGGTKLEIKR
modifications: maleimidocaproyl-val-cit-AFP on cysteine thiols of the DTT-reduced antibody (positions not stated)
- IC50, cytotoxicity (alamarBlue) on CD70+ RCC lines (human CD70 [1]): < 0.02 µg/mL
- IC50, proliferation of activated CD70-expressing T cell clones C2A, 40D8 and 4.01.1 (human CD70 [1]): < 0.05 µg/mL

B2: chimeric 1F6(c1F6)-vcMMAF4 (antibody, V domains shown)
VH: QIQLVQSGPEVKKPGETVKISCKASGYTFTNYGMNWVKQAPGKGLKWMGWINTYTGEPTYADAFKGRFAFSLETSASTAYLQINNLKNEDTATYFCARDYGDYGMDYWGQGTSVTVSS
VL: DIVLTQSPASLAVSLGQRATISCRASKSVSTSGYSFMHWYQQKPGQPPKLLIYLASNLESGVPARFSGSGSGTDFTLNIHPVEEEDAATYYCQHSREVPWTFGGGTKLEIKR
modifications: val-cit-MMAF drug-linker, average of four per antibody (positions not stated)
- IC50 (ng/mL), cytotoxicity on Hs445 cells (human CD70 [2]): 7.3 ng/mL
- IC50 (ng/mL), cytotoxicity on KMH2 cells (human CD70 [2]): 0.41 ng/mL
- IC50 (ng/mL), cytotoxicity on L428 cells (human CD70 [2]): 1.4 ng/mL
- IC50 (ng/mL), cytotoxicity on RPMI-6666 cells (human CD70 [2]): 42 ng/mL
- IC50 (ng/mL), cytotoxicity on SUP-HD-1 cells (human CD70 [2]): 6.3 ng/mL
- IC50 (ng/mL), cytotoxicity on DBTRG-05MG cells (human CD70 [3]): 2.3 ng/mL
- IC50 (ng/mL), cytotoxicity on GMS-10 cells (human CD70 [3]): 27 ng/mL
- IC50 (ng/mL), cytotoxicity on SNB-19 cells (human CD70 [3]): 12 ng/mL
- IC50 (ng/mL), cytotoxicity on U251 cells (human CD70 [3]): 5.3 ng/mL
- IC50 (ng/mL), cytotoxicity on U373MG cells (human CD70 [3]): 16 ng/mL
- IC50 (ng/mL), cytotoxicity on AMO-1 cells (human CD70 [4]): 16 ng/mL
- IC50 (ng/mL), cytotoxicity on JJN-3 cells (human CD70 [4]): 46 ng/mL
- IC50 (ng/mL), cytotoxicity on L363 cells (human CD70 [4]): 78 ng/mL
- IC50 (ng/mL), cytotoxicity on LB cells (human CD70 [4]): 80 ng/mL
- IC50 (ng/mL), cytotoxicity on LP-1 cells (human CD70 [4]): 160 ng/mL
- IC50 (ng/mL), cytotoxicity on MM.1R cells (human CD70 [4]): 13 ng/mL
- IC50 (ng/mL), cytotoxicity on MM.1S cells (human CD70 [4]): 20 ng/mL
- IC50 (ng/mL), cytotoxicity on MOLP-8 cells (human CD70 [4]): 73 ng/mL
- IC50 (ng/mL), cytotoxicity on U266 cells (human CD70 [4]): 1.2 ng/mL

B3: chimeric 1F6 (c1F6)-mcMMAF4 (antibody, V domains shown)
VH: QIQLVQSGPEVKKPGETVKISCKASGYTFTNYGMNWVKQAPGKGLKWMGWINTYTGEPTYADAFKGRFAFSLETSASTAYLQINNLKNEDTATYFCARDYGDYGMDYWGQGTSVTVSS
VL: DIVLTQSPASLAVSLGQRATISCRASKSVSTSGYSFMHWYQQKPGQPPKLLIYLASNLESGVPARFSGSGSGTDFTLNIHPVEEEDAATYYCQHSREVPWTFGGGTKLEIKR
modifications: maleimidocaproyl-MMAF drug-linker, average of four per antibody (positions not stated)
- IC50 (ng/mL), cytotoxicity on Hs445 cells (human CD70 [2]): 310 ng/mL
- IC50 (ng/mL), cytotoxicity on KMH2 cells (human CD70 [2]): 5.2 ng/mL
- IC50 (ng/mL), cytotoxicity on L428 cells (human CD70 [2]): 35 ng/mL
- IC50 (ng/mL), cytotoxicity on RPMI-6666 cells (human CD70 [2]): 230 ng/mL
- IC50 (ng/mL), cytotoxicity on SUP-HD-1 cells (human CD70 [2]): 53 ng/mL
- IC50 (ng/mL), cytotoxicity on DBTRG-05MG cells (human CD70 [3]): 20 ng/mL
- IC50 (ng/mL), cytotoxicity on GMS-10 cells (human CD70 [3]): 110 ng/mL
- IC50 (ng/mL), cytotoxicity on SNB-19 cells (human CD70 [3]): 27 ng/mL
- IC50 (ng/mL), cytotoxicity on U251 cells (human CD70 [3]): 15 ng/mL
- IC50 (ng/mL), cytotoxicity on U373MG cells (human CD70 [3]): 35 ng/mL
- IC50 (ng/mL), cytotoxicity on AMO-1 cells (human CD70 [4]): 38 ng/mL
- IC50 (ng/mL), cytotoxicity on JJN-3 cells (human CD70 [4]): 61 ng/mL
- IC50 (ng/mL), cytotoxicity on L363 cells (human CD70 [4]): 210 ng/mL
- IC50 (ng/mL), cytotoxicity on LB cells (human CD70 [4]): 500 ng/mL
- IC50 (ng/mL), cytotoxicity on LP-1 cells (human CD70 [4]): 155 ng/mL
- IC50 (ng/mL), cytotoxicity on MM.1R cells (human CD70 [4]): 20 ng/mL
- IC50 (ng/mL), cytotoxicity on MM.1S cells (human CD70 [4]): 22 ng/mL
- IC50 (ng/mL), cytotoxicity on MOLP-8 cells (human CD70 [4]): 33 ng/mL
- IC50 (ng/mL), cytotoxicity on U266 cells (human CD70 [4]): 1.7 ng/mL

B4: 1F6-vcMMAE (antibody, V domains shown)
VH: QIQLVQSGPEVKKPGETVKISCKASGYTFTNYGMNWVKQAPGKGLKWMGWINTYTGEPTYADAFKGRFAFSLETSASTAYLQINNLKNEDTATYFCARDYGDYGMDYWGQGTSVTVSS
VL: DIVLTQSPASLAVSLGQRATISCRASKSVSTSGYSFMHWYQQKPGQPPKLLIYLASNLESGVPARFSGSGSGTDFTLNIHPVEEEDAATYYCQHSREVPWTFGGGTKLEIKR
modifications: maleimidocaproyl-val-cit-PAB-MMAE on cysteine thiols of the DTT-reduced antibody (positions not stated)
- IC50, proliferation of Caki-1 cells (human CD70 [1]): < 0.02 µg/mL
- IC50, proliferation of Caki-2 cells (human CD70 [1]): < 0.02 µg/mL

B5: 1F6-vcMMAF (antibody, V domains shown)
VH: QIQLVQSGPEVKKPGETVKISCKASGYTFTNYGMNWVKQAPGKGLKWMGWINTYTGEPTYADAFKGRFAFSLETSASTAYLQINNLKNEDTATYFCARDYGDYGMDYWGQGTSVTVSS
VL: DIVLTQSPASLAVSLGQRATISCRASKSVSTSGYSFMHWYQQKPGQPPKLLIYLASNLESGVPARFSGSGSGTDFTLNIHPVEEEDAATYYCQHSREVPWTFGGGTKLEIKR
modifications: MC-Val-Cit-PAB-MMAF on cysteine thiols of the DTT-reduced antibody (positions not stated)
- IC50, cytotoxicity (alamarBlue) on CD70+ RCC lines (human CD70 [1]): < 0.03 µg/mL
- IC50, proliferation inhibition of all CD70+ RCC lines tested (human CD70 [1]): < 0.03 µg/mL

B6: anti-human CD70 monoclonal antibody 2F2 (antibody, mouse IgG1, V domains shown)
VH: QVQLQQSGTELMTPGASVTMSCKTSGYTFSTYWIEWVKQRPGHGLEWIGEILGPSGYTDYNEKFKAKATFTADTSSNTAYMQLSSLASEDSAVYYCARWDRLYAMDYWGGGTSVTVSS
VL: DIVLTQSPASLTVSLGQKTTISCRASKSVSTSGYSFMHWYQLKPGQSPKLLIYLASDLPSGVPARFSGSGSGTDFTLKIHPVEEEDAATYYCQHSREIPYTFGGGTKLEITR
notes: Murine hybridoma mAb; they were cloned with mouse IgG1 and kappa gene-specific primers; also called mAb 2F2
- binding result (human CD70 [5]): binds

B7: anti-human CD70 monoclonal antibody 1F6 (antibody, mouse IgG1, V domains shown)
VH: QIQLVQSGPEVKKPGETVKISCKASGYTFTNYGMNWVKQAPGKGLKWMGWINTYTGEPTYADAFKGRFAFSLETSASTAYLQINNLKNEDTATYFCARDYGDYGMDYWGQGTSVTVSS
VL: DIVLTQSPASLAVSLGQRATISCRASKSVSTSGYSFMHWYQQKPGQPPKLLIYLASNLESGVPARFSGSGSGTDFTLNIHPVEEEDAATYYCQHSREVPWTFGGGTKLEIKR
notes: Murine hybridoma mAb from the Netherlands Red Cross Blood Transfusion Service; they were cloned with mouse IgG1 and kappa gene-specific primers; Used AlexaFluor488-conjugated for flow cytometry where necessary; also called mAb 1F6; AF-conjugated 1F6
- binding result (human CD70 [6]): binds
